# B1: SHIV_(1157ipd3N4) V3 peptide (305KSISIGPGQAI317) (peptide)
# peptide: KSISIGPGQAI
# Legend:
# Test in all cases: BLI
# [1] = target: J038
# [2] = target: 447-52D
# [3] = target: B1
Binder,Kd [1],Kd [2],Kd [3]
B1,1.65 µM,0.0556 µM,
"JT18 (antibody, V domains shown) VH: EVQLVQSGAEVKRPGESLRISCKTSGYDFTDYWINWVRQMPGKGLEWVGMVYPSDSETAYSPSFRGRVTISADTSISTSYLQWTSLEASDTATYYCARPVSGTFALDVWGRGVLVAVSS VL: QSVLTQPPSMSGAPGQRVTMSCTGGNSNIGANLYVQWYQQVPGTAPRLLIYEDNQRPSGVSDRFSGSRSGSSASLTITGLQSEDEADYYCQSYDNSLSTVLFGGGTRLTVL",,,0.0553 µM

# Reference: publication PMC11240982 (2024)
